Reference: patent US20230416382A1 (Five Prime, published 2023)
Numbering of substitutions follows the chain as printed. “And” between values parts separate entries of the source, which are not always exact repeats. Equal entries are not always repeated.

T1: human CCR4 (human, UniProt P51679 1-360)
T1 construct: whole, on cells; also called hCCR4; huCCR4
T1 sequence (looked up): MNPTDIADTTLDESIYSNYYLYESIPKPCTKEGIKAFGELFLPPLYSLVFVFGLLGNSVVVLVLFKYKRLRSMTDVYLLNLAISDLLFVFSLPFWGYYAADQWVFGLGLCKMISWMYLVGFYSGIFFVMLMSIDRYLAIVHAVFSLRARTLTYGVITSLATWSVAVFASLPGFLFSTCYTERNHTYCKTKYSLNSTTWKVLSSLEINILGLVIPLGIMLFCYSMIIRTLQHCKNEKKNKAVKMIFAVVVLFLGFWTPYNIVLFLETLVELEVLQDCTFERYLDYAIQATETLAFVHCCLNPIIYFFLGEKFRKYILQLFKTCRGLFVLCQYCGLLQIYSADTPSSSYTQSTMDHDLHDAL

T2: human CX3CR1 (human, UniProt P49238 1-355)
T2 construct: whole, on cells; also called hCX3CR1; huCX3CR1
T2 sequence (looked up): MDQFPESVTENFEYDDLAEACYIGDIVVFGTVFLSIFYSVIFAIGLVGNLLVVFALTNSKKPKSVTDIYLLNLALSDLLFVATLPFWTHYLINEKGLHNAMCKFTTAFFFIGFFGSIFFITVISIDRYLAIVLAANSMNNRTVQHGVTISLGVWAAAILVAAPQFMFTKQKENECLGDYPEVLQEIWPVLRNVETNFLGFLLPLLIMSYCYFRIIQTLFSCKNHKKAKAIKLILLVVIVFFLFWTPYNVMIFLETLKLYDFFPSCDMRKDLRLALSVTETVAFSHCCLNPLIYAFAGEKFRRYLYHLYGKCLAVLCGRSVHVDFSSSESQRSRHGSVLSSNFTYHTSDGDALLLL

T3: mCCR8
T3 construct: also called murine CCR8; mouse CCR8
T3 receptor: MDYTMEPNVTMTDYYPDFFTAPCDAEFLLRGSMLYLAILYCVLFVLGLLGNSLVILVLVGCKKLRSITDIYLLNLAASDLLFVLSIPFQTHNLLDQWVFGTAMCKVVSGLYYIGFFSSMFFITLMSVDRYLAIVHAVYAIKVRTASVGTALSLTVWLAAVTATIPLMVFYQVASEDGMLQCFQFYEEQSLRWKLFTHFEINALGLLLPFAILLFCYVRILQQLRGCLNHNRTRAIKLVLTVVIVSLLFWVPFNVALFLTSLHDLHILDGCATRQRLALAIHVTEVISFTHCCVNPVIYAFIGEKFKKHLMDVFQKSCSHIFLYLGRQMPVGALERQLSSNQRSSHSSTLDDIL

B1: I2676 (antibody, V domains shown)
VH: QVQLVESGGGVVQPGRSLRLSCAASGFTFSSYAMHWVRQAPGKGLEWVAVISYDGSNKYYADSVKGRFTISRDNSKNTLYLQMNSLRAEDTAVYYCARVRDRAFDIWGQGTMVTVSS
VL: QAVLTQPASLSASPGASASLTCTLRSGINVGTYRIYWYQQKPGSPPQYLLRYKSDSDKQQGSGVPSRFSGSKDASANAGILLISGLQSEDEADYYCMIWHSSARNWVFGGGTKLTVL
notes: also called anti-CCR8 antibody clone I2676
B2: I3210 (antibody, V domains shown)
VH: B1 VH
VL: QAVLTQPASLSASPGASASLTCTLRSGINVGTYRIYWYQQKPGSPPQYLLRIIKSGSSDKQQGSGVPSRFSGSKDASANAGILLISGLQSEDEADYYCMIWHSSARNWVFGGGTKLTVLG
notes: also called anti-CCR8 antibody clone I3210
B3: I2677 (antibody, V domains shown)
VH: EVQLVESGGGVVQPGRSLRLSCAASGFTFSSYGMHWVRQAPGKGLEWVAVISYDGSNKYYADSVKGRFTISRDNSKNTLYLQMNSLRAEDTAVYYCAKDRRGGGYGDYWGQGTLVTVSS
VL: B1 VL with K113Q
notes: also called anti-CCR8 antibody clone I2677
B4: I3213 (antibody, V domains shown)
VH: B1 VH
VL: QAVLTQPASLSASPGASASLTCTLRSGINLGTYRIYWYQQKPGSPPQYLLRYKSDSDKQQGSGVPSRFSGSKDASANAGILLISGLQSEDEADYYCMIWHSSARNWVFGGGTKLTVLG
notes: also called anti-CCR8 antibody clone I3213
B5: I3144 (antibody, V domains shown)
VH: B1 VH
VL: B1 VL
notes: also called anti-CCR8 antibody clone I3144
B6: I3145 (antibody, V domains shown)
VH: EVQLVETGGGLIQPGGSLRLSCAASGFTVSSNYMSWVRQAPGKGLEWVSVIYSGGSTYYADSVKGRFTISRDNSKNTLYLQMNSLRAEDTAVYYCARGLGSADYWGQGTLVTVSS
VL: DVVMTQSPLSLPVTLGQPASISCRSSQSLLHSNGNTYLNWFQQRPGQSPRRLIYKVSIRDSGVPDRFSGSGSGTDFTLKISRVEAEDVGLYYCMQSTQWPITFGGGTKLEIK
notes: also called anti-CCR8 antibody clone I3145

Key:
cynomolgus CCR8 [1] = molecular target: T4, cynomolgus CCR8 (Macaca fascicularis (cynomolgus), UniProt O97665 1-356 (rhesus entry)); assay: flow cytometry on HEK293 cells expressing cynomolgus CCR8, anti-hIgG BV421 secondary
T4 construct: On transfected HEK293 cells (cyCCR8_293); also called cyCCR8; Cyno CCR8
T4 sequence (O97665 other isoform, or with tags, fused parts or gaps): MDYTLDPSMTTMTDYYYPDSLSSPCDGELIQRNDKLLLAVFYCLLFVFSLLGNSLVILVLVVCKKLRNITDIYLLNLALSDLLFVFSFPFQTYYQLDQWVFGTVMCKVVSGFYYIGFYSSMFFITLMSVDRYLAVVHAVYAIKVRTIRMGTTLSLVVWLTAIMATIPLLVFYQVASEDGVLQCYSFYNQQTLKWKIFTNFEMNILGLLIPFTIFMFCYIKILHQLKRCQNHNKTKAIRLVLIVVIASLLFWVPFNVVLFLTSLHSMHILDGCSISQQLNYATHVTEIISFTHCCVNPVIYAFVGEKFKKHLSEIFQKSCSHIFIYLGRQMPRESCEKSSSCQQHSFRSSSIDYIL
Method: (§1) To determine the binding potency of anti-CCR8 antibodies, a flow based binding study was performed. HEK293 were transfected using expression vectors containing human CCR8 (hCCR8), cynomolgus CCR8 (cyCCR8) or murine CCR8 (mCCR8). Anti-CCR8 antibodies were tittered in the presence of hCCR8_293 (FIG. 8A), cyCCR8_293 cells (FIG. 8B) or mCCR8_293 cells (FIG. 8C). The cells were subsequently stained with an anti-hIgG secondary antibody conjugated to Brilliant Violet 421 (Biolegend) to visualize bound anti-CCR8 antibodies. The geometric mean fluorescence intensity of each sample was used to determine the binding EC50 of each antibody with Prism v.8 (Table 4; Graphpad).

human CCR8 [2] = molecular target: T5, human CCR8 (human, UniProt P51685 1-355); assay: flow cytometry on HEK293 cells expressing human CCR8, anti-hIgG BV421 secondary
T5 construct: also called hCCR8; huCCR8
T5 sequence (P51685 whole entry): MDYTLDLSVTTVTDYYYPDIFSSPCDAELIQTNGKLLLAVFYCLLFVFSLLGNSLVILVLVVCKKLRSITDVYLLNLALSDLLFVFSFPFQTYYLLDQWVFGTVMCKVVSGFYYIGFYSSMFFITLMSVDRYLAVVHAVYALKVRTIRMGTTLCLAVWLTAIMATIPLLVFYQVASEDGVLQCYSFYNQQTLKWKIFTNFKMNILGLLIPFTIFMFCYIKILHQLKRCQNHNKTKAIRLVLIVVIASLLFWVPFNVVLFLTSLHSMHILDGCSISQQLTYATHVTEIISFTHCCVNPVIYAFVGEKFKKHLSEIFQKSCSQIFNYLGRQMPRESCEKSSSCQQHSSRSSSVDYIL
Method: as §1

human CCR4 [3] = molecular target: T1, human CCR4; assay: flow cytometry at 10 ug/ml on dye-barcoded mixed 293 lines, anti-hIgG BV421 secondary
Excerpt: (§2) To assess antibody binding selectivity, the cell lines were first labelled with unique combinations of fluorescent dyes to permit antibody staining of all cell lines in a single tube. hCCR8_293 cells were labeled with Cell Trace Far Red (Invitrogen). hCCR4_293 cells were labeled with carboxyfluorescein succinimidyl ester (Invitrogen). hCX3CR1_293 cells were labeled with both Cell Trace Far Red and carboxyfluorescein succinimidyl ester. Parental 293 cells were not labeled with dye. Anti-CCR8 antibodies were prepared at a concentration of 10 ug/ml and incubated with labeled hCCR8_293, hCCR4_293, hCX3CR1_293 or parental 293 cells that were pre-mixed at an equivalent ratio. The cells were washed and then subsequently stained with an anti-hIgG secondary antibody conjugated to Brilliant Violet 421 (Biolegend) to visualize bound antibodies. To determine the selectivity of binding, the individual cell lines were first identified in each sample and the geometric median fluorescence intensity of the secondary antibody was obtained for each population (FIG. 9B). […]

human CX3CR1 [4] = molecular target: T2, human CX3CR1; assay: as above
Excerpt: as §2

human CCR8 [5] = molecular target: T5, human CCR8; assay: cell-based or functional assay
human CCR8 [6] = molecular target: T5, human CCR8; assay: cell-based or functional assay; remark: listed apart in the source
mCCR8 = molecular target: T3, mCCR8; assay: flow cytometry titration on mCCR8_293 (HEK293) cells, anti-hIgG BV421 secondary
Method: as §1

human CCR4 [7] = molecular target: T1, human CCR4; assay: flow cytometry on mixed dye-labelled HEK293 transfectants, signal compared with parental 293
Excerpt: as §2

human CX3CR1 [8] = molecular target: T2, human CX3CR1; assay: as above
Excerpt: as §2

cynomolgus CCR8 [9] = molecular target: T4, cynomolgus CCR8; assay: flow cytometry titration on cyCCR8_293 (HEK293) cells, anti-hIgG BV421 secondary
Method: as §1

| Binder | EC50 (cynomolgus CCR8 [1]) | EC50 (human CCR8 [2]) | binding result (human CCR4 [3]) | binding result (human CX3CR1 [4]) | FcR reporter activation EC50 (Hut78 target cells, Jurkat FcγRIIIa NFAT-luciferase) (human CCR8 [5]) | NK Killing EC50 (primary human NK cells, TALL1 target cells) (human CCR8 [6]) | binding result (mCCR8) | binding result (human CCR4 [7]) | binding result (human CX3CR1 [8]) | EC50 (read off the curve) (cynomolgus CCR8 [9]) [µg/mL] |
| --- | --- | --- | --- | --- | --- | --- | --- | --- | --- | --- |
| B1 | 0.3 µg/mL and 2 nM | 0.18 µg/mL and 1.2 nM | no binding (tested: 10 ug/ml) | no binding (tested: 10 ug/ml) | 0.00592 µg/mL and 39.4 pM | 0.000856 µg/mL and 6 pM | no binding (tested: about 30 ug/ml (log 1.5)) | – | – | – |
| B2 | – | 0.2 µg/mL and 1.3 nM | – | – | 32.1 pM and 0.00482 µg/mL | 0.00065 µg/mL and 4.5 pM | – | – | – | – |
| B3 | 9.6 µg/mL and 64 nM | 0.13 µg/mL and 0.9 nM | – | – | 0.116 µg/mL and 772 pM | – | – | no binding (tested: 10 ug/ml) | no binding (tested: 10 ug/ml) | – |
| B4 | – | 0.16 µg/mL and 1.1 nM | – | – | 0.00455 µg/mL and 30.4 pM | 0.000602 µg/mL and 4.2 pM | – | – | – | – |
| B5 | – | 4.6 nM and 0.69 µg/mL | no binding (tested: 10 ug/ml) | no binding (tested: 10 ug/ml) | 0.0091 µg/mL and 60.8 pM | – | – | – | – | ~1 |
| B6 | – | 2.43 µg/mL and 16.2 nM | no binding (tested: 10 ug/ml) | no binding (tested: 10 ug/ml) | 0.569 µg/mL and 3790 pM | – | – | – | – | – |
